Patent publication US20150079071A1 (University of California, published 2015)

B1: MMP14F-dCAT (FLAG tagged human MMP14, catalytic domain deleted mutant, deletion of Tyr112-Pro312) (enzyme)
chain: not shown
notes: also called MMP14dCAT; not shown: FLAG tag
B2: annexin A2 (ANXA2), endogenous, in conditioned medium of SCp2 cells (other, mouse, UniProt P07356 2-339, looked up)
chain: STVHEILCKLSLEGDHSTPPSAYGSVKPYTNFDAERDALNIETAVKTKGVDEVTIVNILTNRSNVQRQDIAFAYQRRTKKELPSALKSALSGHLETVILGLLKTPAQYDASELKASMKGLGTDEDSLIEIICSRTNQELQEINRVYKEMYKTDLEKDIISDTSGDFRKLMVALAKGRRAEDGSVIDYELIDQDARELYDAGVKRKGTDVPKWISIMTERSVCHLQKVFERYKSYSPYDMLESIKKEVKGDLENAFLNLVQCIQNKPLYFADRLYDSMKGKGTRDKVLIRIMVSRSEVDMLKIRSEFKRKYGKSLYYYIQQDTKGDYQKALLYLCGGDD
B3: myristoylated alanine-rich C-kinase substrate (MARCKS), endogenous, in conditioned medium of SCp2 cells (other, mouse, UniProt P26645 2-309, looked up)
chain: GAQFSKTAAKGEATAERPGEAAVASSPSKANGQENGHVKVNGDASPAAAEPGAKEELQANGSAPAADKEEPASGSAATPAAAEKDEAAAATEPGAGAADKEAAEAEPAEPSSPAAEAEGASASSTSSPKAEDGAAPSPSSETPKKKKKRFSFKKSFKLSGFSFKKSKKESGEGAEAEGATAEGAKDEAAAAAGGEGAAAPGEQAGGAGAEGAAGGEPREAEAAEPEQPEQPEQPAAEEPQAEEQSEAAGEKAEEPAPGATAGDASSAAGPEQEAPAATDEAAASAAPAASPEPQPECSPEAPPAPTAE

Assays:
[1] = target: T1, Itgb1 (endogenous mouse integrin-beta1 of EpH4 mammary epithelial cells) (mouse, UniProt P09055 21-798); test: anti-FLAG M2 bead IP from EpH4 lysate, Western blot for Itgb1
T1 construct: Endogenous protein in EpH4 cell lysate; also called integrin-β1
T1 sequence (P09055 21-798 limits assumed): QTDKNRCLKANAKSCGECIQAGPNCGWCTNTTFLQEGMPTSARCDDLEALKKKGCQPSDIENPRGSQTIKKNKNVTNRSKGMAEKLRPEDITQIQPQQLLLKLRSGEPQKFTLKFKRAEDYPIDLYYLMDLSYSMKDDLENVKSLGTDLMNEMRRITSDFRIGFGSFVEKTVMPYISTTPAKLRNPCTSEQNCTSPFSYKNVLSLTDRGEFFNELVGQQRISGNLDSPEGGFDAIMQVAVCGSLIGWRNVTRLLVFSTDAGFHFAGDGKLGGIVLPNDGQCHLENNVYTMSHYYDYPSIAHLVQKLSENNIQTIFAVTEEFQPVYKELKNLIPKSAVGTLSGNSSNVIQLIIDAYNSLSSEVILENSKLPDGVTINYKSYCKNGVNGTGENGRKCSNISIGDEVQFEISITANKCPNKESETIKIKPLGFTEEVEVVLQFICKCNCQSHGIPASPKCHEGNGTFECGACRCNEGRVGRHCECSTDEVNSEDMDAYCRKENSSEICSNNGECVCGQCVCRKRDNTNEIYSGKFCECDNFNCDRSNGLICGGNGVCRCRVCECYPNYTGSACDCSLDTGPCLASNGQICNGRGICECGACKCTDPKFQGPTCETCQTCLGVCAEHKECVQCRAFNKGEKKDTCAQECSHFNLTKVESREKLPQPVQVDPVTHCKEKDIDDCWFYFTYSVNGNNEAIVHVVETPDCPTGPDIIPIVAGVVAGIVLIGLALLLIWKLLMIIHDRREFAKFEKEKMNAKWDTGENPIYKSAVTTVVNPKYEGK
From the text: FIG. 14. […] The heat map indicator is presented to show the intensity of the FRET signal. (iv) Quantification of FRET signals. ˜200 FRET signals were quantified on each condition. Data are mean+/−S.E., (****) indicates p<0.001. […] Immuno-complexes are used for IP-WB analysis.

[2] = target: T2, heat-shock protein 90β (HSP90β), endogenous, in conditioned medium of SCp2 cells (mouse, UniProt P11499 2-724); test: reverse co-IP of HSP90β protein complexes from CM of control SCp2 cells, Western blot
T2 construct: also called HSP90b; extracellular HSP90β
T2 sequence (P11499 2-724 limits assumed): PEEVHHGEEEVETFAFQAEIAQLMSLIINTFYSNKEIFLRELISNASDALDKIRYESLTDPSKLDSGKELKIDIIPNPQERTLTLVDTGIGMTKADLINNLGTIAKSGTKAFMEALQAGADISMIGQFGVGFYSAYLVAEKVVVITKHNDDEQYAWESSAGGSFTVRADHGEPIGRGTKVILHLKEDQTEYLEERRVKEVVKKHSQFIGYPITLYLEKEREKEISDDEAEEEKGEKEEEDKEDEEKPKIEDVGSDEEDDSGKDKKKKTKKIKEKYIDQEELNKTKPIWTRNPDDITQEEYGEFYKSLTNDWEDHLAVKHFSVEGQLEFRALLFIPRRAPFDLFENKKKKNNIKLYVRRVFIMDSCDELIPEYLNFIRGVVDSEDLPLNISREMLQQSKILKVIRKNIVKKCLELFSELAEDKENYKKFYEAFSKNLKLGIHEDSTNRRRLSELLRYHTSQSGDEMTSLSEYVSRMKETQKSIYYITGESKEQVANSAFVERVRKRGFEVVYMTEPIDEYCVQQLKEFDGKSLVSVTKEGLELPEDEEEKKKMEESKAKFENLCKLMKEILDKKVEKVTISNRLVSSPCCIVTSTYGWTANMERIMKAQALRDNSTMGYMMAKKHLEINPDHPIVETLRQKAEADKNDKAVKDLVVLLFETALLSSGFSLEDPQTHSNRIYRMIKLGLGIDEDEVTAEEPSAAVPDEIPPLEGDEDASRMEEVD
Method: For co-IP of HSP90β protein complexes, CM was incubated with 10 μg of control rabbit IgG or anti-HSP90β antibody for 16 h at 4° C. Precipitation was performed with protein G sepharose beads (17-0618-01, GE Healthcare) for 4 h at 4° C. The beads were then washed three times with 0.05% Tween/PBS, and the immune complexes were directly eluted with electrophoresis sample buffer and analyzed by Western blotting.

Row | Binder | binding result [1] | binding result [2]
1 | B1 | no binding | –
2 | B2 | – | no binding
3 | B3 | – | no binding
